B1: SCNN1D (parent)
chain: IRVMVHGRNHTPFLGHHSFSVRPG

The source of these data is the supplement of paper PMC10567573.
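Further: lentivirally expressed fusions sorted by FACS into six bins by GFP to DsRed ratio, PSI derived from sequencing read proportions per bin multiplied by bin number.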

In the data set the parent is B1. Nature of the data set: protein stability index of a GFP-peptide fusion (GPS, HEK-293T) (PSI 1-6); higher = more stable. Particulars: c terminus: a fixed tail appended.
As to IRVMVHGRNHTPFLGHHIFSVRPG [S18I], the protein stability index stood at 5.22.
In the case of IRVMVHGRNHTPFLGHHRFSVRPG [S18R], the protein stability index was 4.09.
For the variant IRVMVHGRNHTPFLGHHPFSVRPG [S18P], the protein stability index is 2.79.
As to IRVMVHGRNHTPFLGHHDFSVRPG [S18D], the protein stability index came out at 2.01.
On to IRVMVHGRNHTPFLGHHWFSVRPG [S18W], for which the protein stability index stood at 4.89.
Turning to IRVMDHGRNHTPFLGHHSFSVRPG [V5D], the protein stability index came out at 1.1.
For IRVMGHGRNHTPFLGHHSFSVRPG [V5G], the protein stability index came out at 2.89.
With IRVMSHGRNHTPFLGHHSFSVRPG [V5S], the protein stability index was 1.21.
For the variant IRVMPHGRNHTPFLGHHSFSVRPG [V5P], the protein stability index was 2.12.
For the variant IRVMTHGRNHTPFLGHHSFSVRPG [V5T], the protein stability index was found to be 1.89.
On to IRVMEHGRNHTPFLGHHSFSVRPG [V5E], for which the protein stability index is 2.64.
Take IRVMQHGRNHTPFLGHHSFSVRPG [V5Q]: the protein stability index is 1.87.
Regarding IRVMMHGRNHTPFLGHHSFSVRPG [V5M], the protein stability index stood at 3.81.
In the case of IRVMAHGRNHTPFLGHHSFSVRPG [V5A], the protein stability index is 2.48.
On to IRVMNHGRNHTPFLGHHSFSVRPG [V5N], for which the protein stability index worked out at 1.66.
As to IRVMHHGRNHTPFLGHHSFSVRPG [V5H], the protein stability index turned out to be 2.32.
As for IRVMVHIRNHTPFLGHHSFSVRPG [G7I], the figure is 2.67.
As to IRVMVHMRNHTPFLGHHSFSVRPG [G7M], the protein stability index was found to be 2.97.
Take IRVMVHTRNHTPFLGHHSFSVRPG [G7T]: the protein stability index was determined as 1.92.
Turning to IRVMVHRRNHTPFLGHHSFSVRPG [G7R], the protein stability index stood at 2.12.
Take IRVMVHCRNHTPFLGHHSFSVRPG [G7C]: the protein stability index came out at 1.7.
As for IRVMVHERNHTPFLGHHSFSVRPG [G7E], the protein stability index is 2.05.
Consider IRVMVHSRNHTPFLGHHSFSVRPG [G7S], for which the protein stability index came out at 1.72.
Consider IRVMVHKRNHTPFLGHHSFSVRPG [G7K], for which the protein stability index came to 2.48.
For IRVMVHGENHTPFLGHHSFSVRPG [R8E], the protein stability index was found to be 2.47.
Regarding IRVMVHGHNHTPFLGHHSFSVRPG [R8H], the protein stability index was 3.06.
For the variant IRVMVHGANHTPFLGHHSFSVRPG [R8A], the protein stability index was found to be 2.25.
Consider IRVMVHGRNLTPFLGHHSFSVRPG [H10L], for which the protein stability index was 3.2.
As for IRVMVHGRNCTPFLGHHSFSVRPG [H10C], the figure is 2.19; as for IRVMVHGRNETPFLGHHSFSVRPG [H10E], 1.94.
Turning to IRVMVHGRNMTPFLGHHSFSVRPG [H10M], the protein stability index was determined as 2.15.
Turning to IRVMVHGRNVTPFLGHHSFSVRPG [H10V], the protein stability index stood at 3.51.
Take IRVMVHGRNHTPFLGHTSFSVRPG [H17T]: the protein stability index worked out at 1.89.
IRVMVHGRNHTPFLGHGSFSVRPG [H17G]: the protein stability index was determined as 3.13.
Regarding IRVMVHGRNHTPFLGHYSFSVRPG [H17Y], the protein stability index came out at 4.62.
IRVMVHGRNHTPFLGHVSFSVRPG [H17V]: the protein stability index amounted to 2.27.
As for IRVMVHGRNHTPFLGHLSFSVRPG [H17L], the figure is 3.67; as for IRVMVHGRNHTPFLGHPSFSVRPG [H17P], 2.38.
Turning to IRVMVHGRNHTPFLGHRSFSVRPG [H17R], the protein stability index is 2.73.
Consider IRVMVHGRNHTPFLGHESFSVRPG [H17E], for which the protein stability index was 1.51.
Turning to IRVMVHGRNHTPFLGHKSFSVRPG [H17K], the protein stability index is 2.99.
Consider IRVMVHGRMHTPFLGHHSFSVRPG [N9M], for which the protein stability index turned out to be 5.71.
For the variant IRVMVHGRYHTPFLGHHSFSVRPG [N9Y], the protein stability index is 4.19.
Take IRVMVHGRGHTPFLGHHSFSVRPG [N9G]: the protein stability index came to 2.67.
For the variant IRVMVHGREHTPFLGHHSFSVRPG [N9E], the protein stability index was determined as 3.01.
As for IRVMVHGRCHTPFLGHHSFSVRPG [N9C], the protein stability index is 1.89.
For IRVMVHGRVHTPFLGHHSFSVRPG [N9V], the protein stability index was 3.7.
Take IRVMVHGRNHTPHLGHHSFSVRPG [F13H]: the protein stability index was 1.36.
IRVMVHGRNHTPYLGHHSFSVRPG [F13Y]: the protein stability index amounted to 2.77.
With IRVMVHGRNHTPGLGHHSFSVRPG [F13G], the protein stability index was determined as 1.96.
Consider IRVMVHGRNHTPALGHHSFSVRPG [F13A], for which the protein stability index was 4.08.
IRVMVHGRNHTPLLGHHSFSVRPG [F13L]: the protein stability index was 1.19.
For IRVMVHGRNHTPNLGHHSFSVRPG [F13N], the protein stability index turned out to be 1.77.
With IRVMVHGRNHTPRLGHHSFSVRPG [F13R], the protein stability index came to 1.
As for RRVMVHGRNHTPFLGHHSFSVRPG [I1R], the protein stability index amounted to 3.65.
As for PRVMVHGRNHTPFLGHHSFSVRPG [I1P], the figure is 2.61.
In the case of SRVMVHGRNHTPFLGHHSFSVRPG [I1S], the protein stability index is 3.19.
As for QRVMVHGRNHTPFLGHHSFSVRPG [I1Q], the protein stability index was 3.
As for NRVMVHGRNHTPFLGHHSFSVRPG [I1N], the figure is 2.85; as for TRVMVHGRNHTPFLGHHSFSVRPG [I1T], 2.62; as for WRVMVHGRNHTPFLGHHSFSVRPG [I1W], 2.71.
As for IGVMVHGRNHTPFLGHHSFSVRPG [R2G], the figure is 2.91.
Regarding IPVMVHGRNHTPFLGHHSFSVRPG [R2P], the protein stability index stood at 1.76.
As to ILVMVHGRNHTPFLGHHSFSVRPG [R2L], the protein stability index was 2.6.
With INVMVHGRNHTPFLGHHSFSVRPG [R2N] the figure was 2.13; with IQVMVHGRNHTPFLGHHSFSVRPG [R2Q], 1.58; with IDVMVHGRNHTPFLGHHSFSVRPG [R2D], 2.76.
For the variant IAVMVHGRNHTPFLGHHSFSVRPG [R2A], the protein stability index came to 2.26.
For ITVMVHGRNHTPFLGHHSFSVRPG [R2T], the protein stability index turned out to be 1.51.
Turning to IRVMVHGRNHTYFLGHHSFSVRPG [P12Y], the protein stability index was 1.97.
For the variant IRVMVHGRNHTIFLGHHSFSVRPG [P12I], the protein stability index is 3.72.
With IRVMVHGRNHTGFLGHHSFSVRPG [P12G], the protein stability index amounted to 4.32.
As for IRVMVHGRNHTRFLGHHSFSVRPG [P12R], the figure is 3.86; as for IRVMVHGRNHTHFLGHHSFSVRPG [P12H], 1.48; as for IRVMVHGRNHTPFLGHHSFSFRPG [V21F], 2.91.
As for IRVMVHGRNHTPFLGHHSFSARPG [V21A], the figure is 1.8; as for IRVMVHGRNHTPFLGHHSFSNRPG [V21N], 1.49; as for IRVMVHGRNHTPFLGHHSFSSRPG [V21S], 1.87.
Consider IRVMVHGRNHTPFLGHHSFSDRPG [V21D], for which the protein stability index came to 1.42.
Turning to IRVMVHGRNHTPFLGHHSFSHRPG [V21H], the protein stability index came out at 3.02.
Take IRVMVHGRNHTPFLGHHSFSERPG [V21E]: the protein stability index is 1.41.
With IRVMVHGRNHTPFLGHHSFSRRPG [V21R] the figure was 2.78; with IRVMVHGRNHTPFLGHHSFSLRPG [V21L], 2.48.
As for IRVMVYGRNHTPFLGHHSFSVRPG [H6Y], the protein stability index was found to be 2.35.
For IRVMVCGRNHTPFLGHHSFSVRPG [H6C], the protein stability index amounted to 2.51.
On to IRVMVAGRNHTPFLGHHSFSVRPG [H6A], for which the protein stability index was 2.13.
For IRVMVPGRNHTPFLGHHSFSVRPG [H6P], the protein stability index stood at 2.34.
With IRVMVFGRNHTPFLGHHSFSVRPG [H6F] the figure was 1.91; with IRVMVDGRNHTPFLGHHSFSVRPG [H6D], 2.53.
With IRVMVKGRNHTPFLGHHSFSVRPG [H6K], the protein stability index is 3.76.
As for IRVMVQGRNHTPFLGHHSFSVRPG [H6Q], the figure is 3.67; as for IRVMVEGRNHTPFLGHHSFSVRPG [H6E], 2.27; as for IRVMVTGRNHTPFLGHHSFSVRPG [H6T], 2.35.
IRVMVHGRNHTPFLGHHSFSVGPG [R22G]: the protein stability index was found to be 1.39.
